Residue numbers refer to the chain shown, from its start. In names and notes the source's numbering stands. Blank lines part the entries; values can stand above or below the binder they belong to.
T1: Spn1(148–293)-R263D (S. cerevisiae, UniProt Q06505 148-293, R263D)
T1 sequence (looked up): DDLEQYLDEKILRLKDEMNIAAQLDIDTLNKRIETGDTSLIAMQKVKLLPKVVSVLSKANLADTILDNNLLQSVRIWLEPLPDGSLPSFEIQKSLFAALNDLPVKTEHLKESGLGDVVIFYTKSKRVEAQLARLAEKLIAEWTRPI

T2: Spt6(239–1117) (S. cerevisiae, UniProt P23615 239-1117)
T2 sequence (looked up): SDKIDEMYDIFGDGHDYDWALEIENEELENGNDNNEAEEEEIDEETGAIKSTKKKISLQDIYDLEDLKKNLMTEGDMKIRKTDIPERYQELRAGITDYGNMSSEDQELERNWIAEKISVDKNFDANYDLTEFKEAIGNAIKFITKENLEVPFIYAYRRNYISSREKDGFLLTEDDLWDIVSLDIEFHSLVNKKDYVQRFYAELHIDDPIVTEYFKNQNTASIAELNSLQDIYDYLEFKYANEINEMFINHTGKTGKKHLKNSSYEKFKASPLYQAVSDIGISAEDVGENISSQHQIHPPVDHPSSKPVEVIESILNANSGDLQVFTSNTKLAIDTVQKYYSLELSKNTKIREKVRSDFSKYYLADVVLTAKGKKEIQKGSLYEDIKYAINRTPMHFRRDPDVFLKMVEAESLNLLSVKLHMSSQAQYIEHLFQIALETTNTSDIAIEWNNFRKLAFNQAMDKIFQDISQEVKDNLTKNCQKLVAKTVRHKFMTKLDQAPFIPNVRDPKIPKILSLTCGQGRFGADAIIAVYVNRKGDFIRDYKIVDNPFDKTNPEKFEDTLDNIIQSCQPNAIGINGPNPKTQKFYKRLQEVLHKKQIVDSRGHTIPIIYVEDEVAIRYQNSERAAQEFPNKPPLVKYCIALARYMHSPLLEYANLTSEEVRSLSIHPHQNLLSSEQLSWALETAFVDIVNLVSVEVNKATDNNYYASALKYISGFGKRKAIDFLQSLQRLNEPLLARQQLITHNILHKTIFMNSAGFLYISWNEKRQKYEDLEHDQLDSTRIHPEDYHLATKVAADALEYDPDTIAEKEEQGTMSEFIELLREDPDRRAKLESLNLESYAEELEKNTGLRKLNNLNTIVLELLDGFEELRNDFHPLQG

B1: Spn1(148–293) (domain or fragment, S. cerevisiae, UniProt Q06505 148-293, looked up)
chain: T1 sequence (looked up) with D116R

What was measured:
Test in all cases: ITC
Spn1(148–293)-R263D = target: T1, Spn1(148–293)-R263D
Spn1(148–293) = target: B1
Spt6(239–1117) = target: T2, Spt6(239–1117)

Kd (Spn1(148–293)-R263D): 30 µM
stoichiometry N (Spn1(148–293)): 1
Binder: SDKIDEMYDIFGDGHDYDWALEIENEELEN (domain or fragment, S. cerevisiae, UniProt P23615 239-268, looked up) [Spt6(239–268)]

Kd (Spn1(148–293)): 11 µM
Binder: SDKIDEMYDIKGDGHDYDWALEIENEELEN (domain or fragment, S. cerevisiae, UniProt P23615 239-268, looked up) [Spt6(239–268)-F249K]

Binder: B1
stoichiometry N (Spt6(239–1117)): 1
